# Reference: US7968692B2, “Elongase genes and uses thereof” (Abbott Laboratories, priority 1998, dated 2011)
# Key:
# Assay type in all cases: cell-based, Saccharomyces cerevisiae
# [1] = tested on: S. cerevisiae 334; assay: Comparison of MAELO and S. cerevisiae ELO2 PUFA elongase activity in baker's yeast; conditions: 25 μM GLA; FIG. 12
# From the text: The ELO2 gene encoding for the yeast elongase was cloned from an S. cerevisiae genomic library (Origene, Rockville, Md.) using the primers RO514 (SEQ ID NO: 94) (5′-GGCTATGGATCCATGAATTCACTCGTTACTCAATATG-3′) and RO515 (SEQ ID NO: 95)(5′-CCTGCCAAGCTTTTACCTTTTTCTTCTGTGTTGAG-3′) incorporating the restriction sites (underlined) BamHI and HindIII (respectively). The ELO2 gene was cloned into the vector pYX242 at the BamHI and HindIII sites, designated pRELO, transformed into the S. cerevisiae host 334 (Hoveland et al., supra) and screened for PUFA elongase activity. The vector plasmid was used as a negative control and 334(pRAE-5) was grown to compare the PUFA elongase activity. The cultures were grown as previously described with no galactose in the media and 25 μM GLA added as a substrate. […] Additionally, when DGLA produced is expressed as a percent of the total lipids (shown in parenthesis, FIG. 12), the clones 334(pRELO-1) and 334 (pRELO-2) produced 0.153% and 0.2% DGLA respectively, while 334(pYX242) produced 0.185% DGLA. […] The M. alpina PUFA elongase activity is specific for this conversion as evidenced by the higher amount of DGLA produced compared to the control, 334(pYX242).
# [2] = tested on: S. cerevisiae 334; assay: GLA elongase (GLELO) activity and substrate specificity in yeast
# Description: To further confirm the activity of the GLA elongase encoded by the pRPB2 recombinant plasmid, elongase activity screening was repeated on the yeast clone SC334 containing pRPB2 plasmid. This experiment was also conducted to assure consistent lipid extraction and to detect the activity of GLA elongase by averaging four independent experiments. The S. cerevisiae 334 glycerol stock containing pRPB2 was plated onto minimal media agar plates lacking uracil. Individual colonies were randomly picked and grown in minimal medium lacking uracil, as described in Example VIII. The four independent cultures were combined, and a 5 ml aliquot was used as an inoculum for four separate 50 ml cultures. The cultures were then grown in the presence of GLA and were subjected to fatty acid analysis along with a negative control of S. cerevisiae 334 containing pYES2, as described in Example VIII. The GLA elongase activity of each of the four independent samples of 334(pRPB2) appeared to be consistent with an average conversion of 62% GLA to DGLA.
# To analyze the substrate specificity of the GLA elongase, the culture of 334(pRPB2) was tested with different fatty acid substrates besides GLA (e.g., SA(18:0), OA(18:1), LA(18:2n-6), AA(20:4n-6), ADA(22:4n-6), ALA(18:3n-3), STA(18:4n-3), and EPA(20:5n-3)). […] GLA elongase was able to convert 73% of STA to 20:4n-3 (FIG. 25).
# [3] = tested on: S. cerevisiae 334; assay: Co-expression of GLELO and M. alpina Δ5-desaturase in yeast
# Description: Once DGLA (20:3n-6) is produced by the GLA elongase, the Δ5-desaturase can convert it to AA (20:4n-6) in a desired co-expression system. […] Therefore, the GLA elongase has the ability to work with other enzymes in the n-6 PUFA synthetic pathway to produce desirable fatty acids.
# To determine whether the above conversion is also true in n-3 pathways, the similar co-expression experiments were carried out in the presence of 25 μM STA. Again, if both enzymes are expressed, the STA substrate will be converted to 20:4n-3 which will then be converted to EPA (20:5n-3) by the Δ5-desaturase.
# [4] = tested on: S. cerevisiae 334; assay: C. elegans elongase CEELO1 activity in yeast
# Description: The plasmids pRET-21 and -22 were transformed into S. cerevisiae 334 as previously described (see Example III) and the resulting yeast cultures (334(pRET-21) and 334(pRET-22)) grown in 100 ml of selective media without leucine (Ausubel et al, supra) for 48 hours at 20° C. in the presence of 50 μM GLA and AA. […] The percent conversion of GLA to DGLA by 334(pRET-21) and 334(pRET-22) was 11.1% and 19.4% respectively with an average of 15.25%.
# To further confirm the GLA elongation activity of CEELO1, the experiment described in the paragraphs above was repeated with the exception that GLA and AA were added to cultures of 334(pRET-22) separately. […] In this case, the percent conversion appears to be double that described in previous results (see FIG. 48) and may either be due to the absence of the additional substrate (AA) or the subculturing of the yeast.
# Additionally, to further determine the substrate specificity of CEELO1, 50 μM of each substrate besides GLA (e.g., SA (18:0), OA (18:1), LA (18:2n-6), DGLA (20:3n-g), AA ([…]), ADA (22:4n-6), ALA (18:3n-3), PA ([…]), EPA (20:5n-3) and STA ([…])) was added individually to cultures of 334(pRET-22) and grown for 48 hours at 20° C., as described in Example XVII. […] The CEELO1 elongated 13% of STA incorporated to ETA (20:4n-3)(see FIG. 62).
# [5] = tested on: yeast; assay: Co-expression of CEELO1 and M. alpina Δ5 desaturase in yeast; conditions: pRET22 and pCGR4 co-expressed, FIG. 63
# Description: Parallel to Examples III and XI, the C. elegans CEELO1 gene in the plasmid pRET22 and M. alpina Δ5 desaturase (pCGR-4; see Example III) were co-expressed in yeast to determine if AA or EPA could be produced from exogenously added GLA or STA, respectively. When a yeast culture containing both pRET22 and pCGR4 plasmids was grown in the presence of 50 μM GLA or STA in media lacking leucine and uracil, the percent conversion to the final products of AA and EPA, respectively, appeared identical (27% conversion)(see FIG. 63). Thus, simultaneous heterologous expression of CEEL01 and a Δ5 desaturase results in the biosynthesis of AA and EPA from GLA and STA, respectively in yeast.
# [6] = 50 μM GLA and AA together, 48 hours at 20° C., FIG. 48
# [7] = GLA and AA added separately, FIG. 61
molecule,measurement,setting,value
"334(pRELO-2): individual clone of S. cerevisiae 334 overexpressing S. cerevisiae elongase ELO2 in pYX242 (pRELO) (protein, UniProt P25358 1-347, looked up) Fatty acid elongase 2: MNSLVTQYAAPLFERYPQLHDYLPTLERPFFNISLWEHFDDVVTRVTNGRFVPSEFQFIAGELPLSTLPPVLYAITAYYVIIFGGRFLLSKSKPFKLNGLFQLHNLVLTSLSLTLLLLMVEQLVPIIVQHGLYFAICNIGAWTQPLVTLYYMNYIVKFIEFIDTFFLVLKHKKLTFLHTYHHGATALLCYTQLMGTTSISWVPISLNLGVHVVMYWYYFLAARGIRVWWKEWVTRFQIIQFVLDIGFIYFAVYQKAVHLYFPILPHCGDCVGSTTATFAGCAIISSYLVLFISFYINVYKRKGTKTSRVVKRAHGGVAAKVNEYVNVDLKNVPTPSPSPKPQHRRKR",DGLA produced as a percent of the total lipids,[1],0.2%
same,amount of 20:3n-6 or DGLA produced relative to negative control pYX242,[1],twice
"GLELO: M. alpina GLA elongase, 318 amino acids, encoded by GLELO cDNA (SEQ ID NO:2) in plasmid pRPB2 (protein, listed as Mortierella alpina) MESIAPFLPSKMPQDLFMDLATAIGVRAAPYVDPLEAALVAQAEKYIPTIVHHTRGFLVAVESPLARELPLMNPFHVLLIVLAYLVTVFVGMQIMKNFERFEVKTFSLLHNFCLVSISAYMCGGILYEAYQANYGLFENAADHTFKGLPMAKMIWLFYFSKIMEFVDTMIMVLKKNNRQISFLHVYHHSSIFTIWWLVTFVAPNGEAYFSAALNSFIHVIMYGYYFLSALGFKQVSFIKFYITRSQMTQFCMMSVQSSWDMYAMKVLGRPGYPFFITALLWFYMWTMLGLFYNFYRKNAKLAKQAKADAAKEKARKLQ",average conversion of GLA to DGLA,"[2]; 25 μM GLA, four independent cultures, FIG. 24",62%
same,"utilization of other substrates SA, OA, LA, AA, ADA, ALA, STA, EPA",[2]; identical assay conditions,the only other substrate utilized by the elongase enzyme was STA
same,conversion of STA to 20:4n-3,"[2]; substrate STA, FIG. 25",73%
same,average conversion of GLA to AA,"[3]; 25 μM GLA, co-expressed with Δ5-desaturase (pRPE31), FIG. 26A",27%
same,production of EPA,"[3]; 25 μM STA, co-expressed with Δ5-desaturase, FIG. 26B",approx. 40%
"CEELO1: C. elegans elongase (SEQ ID NO:4), 288 amino acids, expressed in yeast from pRET-22 (protein, Caenorhabditis elegans) MAQHPLVQRLLDVKFDTKRFVAIATHGPKNFPDAEGRKFFADHFDVTIQASILYMVVVFGTKWFMRNRQPFQLTIPLNIWNFILAAFSIAGAVKMTPEFFGTIANKGIVASYCKVFDFTKGENGYWVWLFMASKLFELVDTIFLVLRKRPLMFLHWYHHILTMIYAWYSHPLTPGFNRYGIYLNFVVHAFMYSYYFLRSMKIRVPGFIAQAITSLQIVQFIISCAVLAHLGYLMHFTNANCDFEPSVFKLAVFMDTTYLALFVNFFLQSYVLRGGKDKYKAVPKKKNN","DGLA, average of the total lipid in the two samples",[4]; [6],1.79%
same,percent conversion of GLA to DGLA,[4]; [6],19.4%
same,elongation of AA or any endogenous fatty acid,"[4]; 50 μM GLA and AA together, FIG. 48",almost no elongation
same,STA incorporated elongated to ETA (20:4n-3),"[4]; 50 μM STA, 48 hours at 20° C., FIG. 62",13%
same,"elongation of other exogenously added substrates (SA, OA, LA, DGLA, AA, ADA, ALA, PA, EPA, STA)","[4]; 50 μM of each substrate individually, FIG. 62",STA was the only exogenously added substrate that was elongated
same,conversion rate of GLA to DGLA,[4]; [7],38.2%
same,elongation activity of AA,[4]; [7],No elongation activity of AA was detected
same,average percent conversion of GLA to DGLA,"[4]; average of 334(pRET-21) and 334(pRET-22), 50 μM GLA and AA together",15.25%
same,conversion rate of endogenous 16:1n-7 to 18:1n-7,[4]; endogenous substrate,9.12%
same,percent conversion of GLA to final product AA,[5]; 50 μM GLA,27%
same,percent conversion of STA to final product EPA,[5]; 50 μM STA,27%
